We go through one molecule from patent publication US20220098303A1 (GlaxoSmithKline, published 2022).

The target of this experiment is cynomolgus PD-1 (cynomolgus). Nature of the experiment: kinetic analysis (bio-light interferometry).

B1: Pembrolizumab (antibody, V domains shown)
VH: QVQLVQSGVEVKKPGASVKVSCKASGYTFTNYYMYWVRQAPGQGLEWMGGINPSNGGTNFNEKFKNRVTLTTDSSTTTAYMELKSLQFDDTAVYYCARRDYRFDMGFDYWGQGTTVTVSS
VL: EIVLTQSPATLSLSPGERATLSCRASKGVSTSGYSYLHWYQQKPGQAPRLLIYLASYLESGVPARFSGSGSGTDFTLTISSLEPEDFAVYYCQHSRDLPLTFGGGTKVEIKR
notes: also called MK3475
Turning to B1, the Kd (as a rule, the concentration at which binding is half-saturated) was 0.118 nM.
